We go through three molecules from doi:10.1101/2020.05.08.084889 (bioRxiv, 2020).

B1: E-cadherin complete extracellular region, biotinylated (Ecad-ATH) (domain or fragment)
chain: DWVIPPISCPENEKGPFPKNLVQIKSNRDKEIKVFYSITGQGADAPPVGVFIIERETGWLKVTEPLDREQIAKYILYSHAVSSNGNAVEDPMEIVITVTDQNDNKPEFTQAVFQGSVTEGALPGTSVMQVTATDADDDVNTYNAAIAYSILTQDPLLPSSMMFTINKDTGVISVLTTGLDREGVPMYTLVVQAADLQGEGLTTTATAVITVTDINDNPPIFNPTTYQGRVPENKANVEIAVLKVTDADVPDTPAWRAVYTILNNNNDQFVVTTDPVTNDGILKTTKGLDFEDKQQYVLYVTVVNVTPFEVILSTSTATVTVDVEDVNEAPIFIPCPKVVSIPEDFGVGQEITSYTAEDPDTYMEQRITYRIWRDAAGWLEVNPESGAIFTRAELDREDFEHVKNSTYEALIIAIDNGSPVATGTGTLLLVLSDVNDNGPIPEPRNMDFCQKNPQPHVINIIDPDLPPNTSPFTAELTHGASVNWTIEYNDPARESLILKPKKTLELGDYKINLKLTDNQNKDQVTTLDVFVCDCEGVVNSCKRTAPYAEAGLQVPA
modifications: biotin on the Avi-tag (BirA enzyme)
B2: Recombinant rat EfnB1-FC (Fc fusion)
chain: ATPLAKNLEPVSWSSLNPKFLSGKGLVIYPKIGDKLDIICPRAEAGRPYEYYKLYLVRPEQAAACSTVLDPNVLVTCNKPQQEIRFTIKFQEFSPNYMGLEFKKYHDYYITSTSNGSLEGLENREGGVCRTRTMKIVMKVGQDPNAVTPEQLTTSRPSKESDNTVKTATQAPGRGSQGDSDGKHETVNQQEKSGPGAGGSGSGDTDSFFNSK
B3: Desmocollin-3 complete extracellular region, biotinylated (Dsc3-ATH) (domain or fragment)
chain: RWAPIPCSMQENSLGPFPLFLQQVESDAAQNYTVFYSISGRGVDKEPLNLFYIERDTGNLFCTRPVDREEYDVFDLIAYASTADGYSADLPLPLPIRVEDENDNHPVFTEAIYNFEVLESSRPGTTVGVVCATDRDEPDTMHTRLKYSILQQTPRSPGLFSVHPSTGVITTVSHYLDREVVDKYSLIMKVQDMDGQFFGLIGTSTCIITVTDSNDNAPTFRQNAYEAFVEENAFNVEILRIPIEDKDLINTANWRVNFTILKGNENGHFKISTDKETNEGVLSVVKPLNYEENRQVNLEIGVNNEAPFARDIPRVTALNRALVTVHVRDLDEGPECTPAAQYVRIKENLAVGSKINGYKAYDPENRNGNGLRYKKLHDPKGWITIDEISGSIITSKILDREVETPKNELYNITVLAIDKDDRSCTGTLAVNIEDVNDNPPEILQEYVVICKPKMGYTDILAVDPDEPVHGAPFYFSLPNTSPEISRLWSLTKVNDTAARLSYQKNAGFQEYTIPITVKDRAGQAATKLLRVNLCECTHPTQCRATSRSTGVILGK
modifications: biotin on the Avi-tag (BirA enzyme)

For series [1], the target named is B2. The series can be described thus: single molecule AFM force measurement.
Series [2] deals with the molecule itself. The series can be described thus: single molecule AFM force measurement.

Regarding B1, the “fold of heterophilic binding over EfnB1 homophilic binding” value in series [1] was roughly 3 fold. For the molecule B2, the binding result in series [2] is “binds”. The same measure, in the same setting: the value for B3 was “binds”.
